Assay results as given in PMC2734569, “Functional mapping of the fission yeast DNA polymerase δ B-subunit Cdc1 by site-directed and random pentapeptide insertion mutagenesis” (BMC Molecular Biology, 2009).

Experiments:
Assay in all cases: two-hybrid; LexA-Cdc1 bait (pBTM116 or pBTM116BN) with Gal4 activation domain-Cdc27 prey (pGAD2F-Cdc27) in S. cerevisiae CTY10-5d; ONPG liquid culture beta-galactosidase assay, mean of triplicates, as percent of wild-type Cdc1
Conditions in all cases: partners not purified
Cdc1-J7 = molecular target: T1, Cdc1-J7 (Schizosaccharomyces pombe, UniProt P87324 1-462, Met-GlyValProLeuMet-Glu)
T1 construct: Cdc1, S. pombe, with a pentapeptide inserted after residue 393; source: yeast two-hybrid fusion, in S. cerevisiae CTY10-5d
T1 sequence (looked up): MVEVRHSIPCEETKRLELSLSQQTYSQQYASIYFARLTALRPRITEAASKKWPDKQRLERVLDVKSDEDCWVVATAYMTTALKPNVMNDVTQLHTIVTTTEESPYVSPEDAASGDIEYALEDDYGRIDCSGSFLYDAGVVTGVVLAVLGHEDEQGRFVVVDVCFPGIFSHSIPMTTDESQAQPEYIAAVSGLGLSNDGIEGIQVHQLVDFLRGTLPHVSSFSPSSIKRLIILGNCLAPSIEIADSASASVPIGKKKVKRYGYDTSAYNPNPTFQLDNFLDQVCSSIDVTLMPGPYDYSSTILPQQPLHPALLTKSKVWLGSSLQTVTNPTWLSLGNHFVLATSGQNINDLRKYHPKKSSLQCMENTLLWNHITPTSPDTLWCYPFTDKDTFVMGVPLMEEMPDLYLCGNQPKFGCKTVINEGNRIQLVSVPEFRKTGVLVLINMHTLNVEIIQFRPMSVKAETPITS

Cdc1-A6 = molecular target: T2, Cdc1-A6 (Schizosaccharomyces pombe, UniProt P87324 1-462, Pro329Ala)
T2 construct: Cdc1, S. pombe, point mutant; source: yeast two-hybrid fusion, in S. cerevisiae CTY10-5d
T2 sequence (looked up): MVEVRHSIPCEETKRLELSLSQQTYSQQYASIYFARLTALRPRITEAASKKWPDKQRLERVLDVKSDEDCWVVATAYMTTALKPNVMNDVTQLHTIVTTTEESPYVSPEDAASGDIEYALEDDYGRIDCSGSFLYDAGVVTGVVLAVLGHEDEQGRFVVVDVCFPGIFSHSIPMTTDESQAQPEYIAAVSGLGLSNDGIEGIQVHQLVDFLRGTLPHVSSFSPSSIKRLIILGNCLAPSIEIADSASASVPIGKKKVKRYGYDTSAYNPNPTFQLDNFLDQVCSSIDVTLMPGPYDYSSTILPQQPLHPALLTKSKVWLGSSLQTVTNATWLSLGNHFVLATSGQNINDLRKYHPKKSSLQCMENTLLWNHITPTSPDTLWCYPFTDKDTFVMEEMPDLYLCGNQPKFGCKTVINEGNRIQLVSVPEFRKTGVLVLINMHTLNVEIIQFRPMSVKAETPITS

Cdc1-J22 = molecular target: T3, Cdc1-J22 (Schizosaccharomyces pombe, UniProt P87324 1-462, Arg-GlyValProLeuArg-Gly)
T3 construct: Cdc1, S. pombe, with a pentapeptide inserted after residue 212; source: yeast two-hybrid fusion, in S. cerevisiae CTY10-5d
T3 sequence (looked up): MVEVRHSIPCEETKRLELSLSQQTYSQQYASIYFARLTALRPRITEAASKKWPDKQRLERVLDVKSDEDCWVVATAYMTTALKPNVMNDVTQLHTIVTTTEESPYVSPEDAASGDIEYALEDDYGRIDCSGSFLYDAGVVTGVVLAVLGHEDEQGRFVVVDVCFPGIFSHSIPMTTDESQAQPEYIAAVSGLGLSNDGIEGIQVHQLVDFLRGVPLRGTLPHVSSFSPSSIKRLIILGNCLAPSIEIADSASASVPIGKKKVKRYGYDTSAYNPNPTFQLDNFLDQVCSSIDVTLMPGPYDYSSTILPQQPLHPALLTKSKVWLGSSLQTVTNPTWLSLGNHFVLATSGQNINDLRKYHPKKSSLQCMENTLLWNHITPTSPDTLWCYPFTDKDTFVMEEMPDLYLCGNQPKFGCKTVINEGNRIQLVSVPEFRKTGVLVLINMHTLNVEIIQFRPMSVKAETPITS

Cdc1-J10 = molecular target: T4, Cdc1-J10 (Schizosaccharomyces pombe, UniProt P87324 1-462, Tyr-ArgGlyThrProTyr-Met)
T4 construct: Cdc1, S. pombe, with a pentapeptide inserted after residue 77; also called J11; E6; source: yeast two-hybrid fusion, in S. cerevisiae CTY10-5d
T4 sequence (looked up): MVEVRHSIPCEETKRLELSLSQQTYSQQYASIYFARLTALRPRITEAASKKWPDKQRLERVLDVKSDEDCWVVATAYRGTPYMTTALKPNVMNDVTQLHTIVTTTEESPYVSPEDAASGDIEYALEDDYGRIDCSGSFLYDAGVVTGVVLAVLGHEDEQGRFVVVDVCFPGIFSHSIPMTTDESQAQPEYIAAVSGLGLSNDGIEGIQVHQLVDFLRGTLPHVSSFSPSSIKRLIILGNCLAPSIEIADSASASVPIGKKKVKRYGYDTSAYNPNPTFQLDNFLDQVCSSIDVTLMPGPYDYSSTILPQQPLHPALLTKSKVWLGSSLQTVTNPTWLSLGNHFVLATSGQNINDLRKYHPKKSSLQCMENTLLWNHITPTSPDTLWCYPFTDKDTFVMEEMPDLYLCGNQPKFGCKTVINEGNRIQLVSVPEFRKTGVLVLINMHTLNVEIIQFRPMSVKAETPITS

two-hybrid beta-galactosidase activity, % of wild-type Cdc1 (Cdc1-J7): 19%
two-hybrid beta-galactosidase activity, % of wild-type Cdc1 (Cdc1-A6): 6%
two-hybrid beta-galactosidase activity, % of wild-type Cdc1 (Cdc1-J22): 7%
two-hybrid beta-galactosidase activity, % of wild-type Cdc1 (Cdc1-J10): 30%
B1: Cdc27 (fission yeast DNA polymerase delta C-subunit) (natural protein, Schizosaccharomyces pombe, UniProt P30261 1-372, looked up)
chain: MEEWRNFLDIKVINESSLVTVDNLSLQLDISSEKAQEYLNMFYQGNDFLYPIYLIHGQPIDDEINLEIDEESQPISNFPVLQYILCDKSSLQEKQSRLKSGYKTVIFALSSAPLSDFDELLPAVYEIREKDVLYKKEDADKYGFIFNENSVPRVLKKAPSTHSPQLSVPSKTSTIDKTDTRSTEKTKGKDIFSNARNQKGNSSRKNKKAPLENHKEKEPLLPKEEKLSEQAKRERDDLKNIMQLEDESVSTTSVHDSEDDNLDSNNFQLEIGTEAKSAAPDEPQEIIKSVSGGKRRGKRKVKKYATTKDEEGFLVTKEEEVWESFSEDENISTGTSNVVRNKPTTVNIATKKKNTAQSKPQQKSIMSFFGKK
notes: DNA polymerase delta C-subunit Cdc27, S. pombe; prey plasmid pGAD2F-Cdc27; also called pGAD2F-Cdc27; source: yeast two-hybrid fusion, in S. cerevisiae CTY10-5d
